Measured values reported in patent publication US20140004106A1.

What was measured:
[1] = molecular target: 28mer peptide of the CXCR5 antigen; assay: Ag-ELISA; DS in PBS, 5°C, 3 months
[2] = molecular target: 28mer peptide of the CXCR5 antigen; assay: Antigen-ELISA; histidine 10 mM prototype B, T0
[3] = molecular target: 28mer peptide of the CXCR5 antigen; assay: Antigen-ELISA; PB 10 mM pH 7.50, T0
[4] = molecular target: 28mer peptide of the CXCR5 antigen; assay: Antigen-ELISA; PB 10 mM pH 6.50, after mechanical stress 350 rpm 2.5 h
[5] = molecular target: 28mer peptide of the CXCR5 antigen; assay: Antigen-ELISA; Acetate 10 mM pH 5.00, after 1 week at +40°C
[6] = molecular target: 28mer peptide of the CXCR5 antigen; assay: Antigen-ELISA; PBS 155 mM, light stress, 24 h
[7] = molecular target: 28mer peptide of the CXCR5 antigen; assay: Antigen-ELISA; acetate 10 mM prototype C, T0
[8] = molecular target: 28mer peptide of the CXCR5 antigen; assay: ELISA potency (binding); 100 mg/mL, Lysine (30) + Mannitol (15), 7 days at 40°C
[9] = molecular target: 28mer peptide of the CXCR5 antigen; assay: Antigen-ELISA; histidine 10 mM prototype A, T0
[10] = molecular target: 28mer peptide of the CXCR5 antigen; assay: Antigen-ELISA; Succinate 10 mM pH 5.00, T0
[11] = molecular target: 28mer peptide of the CXCR5 antigen; assay: Antigen-ELISA; PB 10 mM pH 7.50, after 1 week at +40°C
[12] = molecular target: 28mer peptide of the CXCR5 antigen; assay: Antigen-ELISA; Acetate 10 mM pH 5.50, after 1 week at +40°C
[13] = molecular target: 28mer peptide of the CXCR5 antigen; assay: Antigen-ELISA; acetate 10 mM prototype B, repeated values in the 3 weeks -20°C
[14] = molecular target: 28mer peptide of the CXCR5 antigen; assay: ELISA potency (binding); 100 mg/mL, Trehalose (60) + Mannitol (15), T zero
[15] = molecular target: 28mer peptide of the CXCR5 antigen; assay: Potency (Antigen ELISA); stored +5°C, 15 months
[16] = molecular target: 28mer peptide of the CXCR5 antigen; assay: ELISA potency (binding); 100 mg/mL, Lysine (30) + NaCl (2), T zero
[17] = molecular target: 28mer peptide of the CXCR5 antigen; assay: Potency (Antigen ELISA); stored +5°C, initial
[18] = molecular target: 28mer peptide of the CXCR5 antigen; assay: Antigen-ELISA; PB 10 mM pH 7.00, T0
[19] = molecular target: 28mer peptide of the CXCR5 antigen; assay: ELISA potency (binding); 100 mg/mL, Arginine (20) + Mannitol (15), T zero
[20] = molecular target: 28mer peptide of the CXCR5 antigen; assay: Antigen-ELISA; standard run with LA_09_004_10
[21] = molecular target: 28mer peptide of the CXCR5 antigen; assay: Potency (Antigen ELISA); stored -20°C, 3 months
[22] = molecular target: 28mer peptide of the CXCR5 antigen; assay: Antigen-ELISA; Citrate 10 mM pH 5.50, T0
[23] = molecular target: 28mer peptide of the CXCR5 antigen; assay: Antigen-ELISA; PBS 155 mM, amber glass type II, 24 h +40°C
[24] = molecular target: 28mer peptide of the CXCR5 antigen; assay: Antigen-ELISA; Histidine 10 mM pH 6, T0
[25] = molecular target: 28mer peptide of the CXCR5 antigen; assay: Potency (Antigen ELISA); stored +5°C, 18 months
[26] = molecular target: 28mer peptide of the CXCR5 antigen; assay: ELISA potency (binding); 100 mg/mL, Glycine (20) + NaCl (2), T zero
[27] = molecular target: 28mer peptide of the CXCR5 antigen; assay: Ag-ELISA; DS in PBS, -20°C, 3 months

B1: Lead CXCR5 Antibody (humanized IgG4 anti-CXCR5 antibody) (antibody, V domains shown)
VH: QVQLKESGPGLVAPSESLSITCTVSGFSLIDYGVNWIRQPPGKGLEWLGVIWGDGTTYYNPSLKSRLSISKDNSKSQVFLKVTSLTTDDTAMYYCARIVYWGQGTLVTVSA
VL: DIVMTQAAPSVAVTPGASVSISCRSSKSLLHSSGKTYLYWFLQRPGQSPQLLIYRLSSLASGVPDRFSGSGSGTAFTLRISRVEAEDVGVYYCMQHLEYPYTFGGGTKLEIKR
Binder B1 has an EC50 % [1] of 112%, an EC50 % [2] of 118% and an EC50 % [3] of 117%. It also gave an EC50 % [4] of 89.4%, an EC50 % [5] of 102% and an EC50 % [6] of 72.3%. It also gave an EC50 % [7] of 142%, a rel. potency [%] [8] of 297% and an EC50 % [9] of 174%. It also gave an EC50 % [10] of 124%, an EC50 % [11] of 68% and an EC50 % [12] of 94.9%. For the same binder, the EC50 % [13] was 112%, the rel. potency [%] [14] was 156% and the EC50 value (in comparison to reference) [15] was 114%. It also gave a rel. potency [%] [16] of 130%, an EC50 value (in comparison to reference) [17] of 75% and an EC50 % [18] of 145%. It also gave a rel. potency [%] [19] of 117%, an EC50 % [20] of 100% and an EC50 value (in comparison to reference) [21] of 84%. The EC50 % [22] was 112%, the EC50 % [23] was 90.1% and the EC50 % [24] was 184%. For the same binder, the EC50 value (in comparison to reference) [25] was 119%, the rel. potency [%] [26] was 174% and the EC50 % [27] was 93%.
